Assay results from the nanobody polyreactivity screen of Harvey et al. (2022).

Test: yeast display, Sf9 membrane polyspecificity reagent, FACS + sequencing; frameworks hold sequencing errors
In short: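 In a synthetic yeast display library (Saccharomyces cerevisiae BJ5465), nanobody expression was induced with galactose for 36–48 hours. FACS gates were set low and high (top ~1%) using anti-HA fluorescence for expression and streptavidin fluorescence for binding of the Sf9 membrane reagent. Each polyreactivity label is drawn from the gate of origin.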
In the case of “QVQLVESGGGLVQAGGSLRISCAASGSIFLYYAMGWYRQPPGKEREFVAAISYSGGRTYYADSVKGRFTISRDNAKNTVYLQMNSLKPEDTAVYYCNALYRLGVSGLTQSRYGYWGQGTQVTVSS”, the “polyreactivity (PSR sort gate)” value is reported as “high polyreactivity”. In the case of “QVQLVESGGGLVQAGGSLRISCAASGSIFRGNAMGWYRQAPGKERELVAAISKSGGSTYYADSVKGRITISRDNAKNTVYLQMNSLKPEDTAVYYCAARTTYLYGMYYWGQGTQVTVSS”, the “polyreactivity (PSR sort gate)” value is reported as “low polyreactivity”. In the case of “QVQLVESGGGLVQAGGSLRISCAASGSIFRQYAMGLYRQAPGKEWELVAAITYSGGNTYYADSVKGRFTISRDNAKNTVYLQMNSLKPEDTAVYYCAADYGSRSWEYNYWGQGTQVTVSS”, the “polyreactivity (PSR sort gate)” value is reported as “low polyreactivity”. With “QVQLVESGGGLVQAGGSLRISCAASGSIFRVYAMGWYRPAPGKERELVASITLSGGSTYYADSVKGRVTISRDNAKNTVYLQMNSLKPDDTAVYSCAARKRYRNPNTSRGMDYWGQGTQVNVSS” the “polyreactivity (PSR sort gate)” value was “high polyreactivity”. In the case of “QVQLVESGGGLVQAGGSLRISCAASGSIFRYYAMGWYRQAPGKEREFVDSITYRGGRTYYADSVKGRFTISRDNAKNTVYLQMNSLKPEDTAVYYCAARYRVRYYERDYWGQGTQVTVSS”, the “polyreactivity (PSR sort gate)” value is reported as “high polyreactivity”. For “QVQLVESGGGLVQAGGSLRISCAASGSIFTAYAMGWYRQAPGKERELVAAITQSAGSTYADSVKGRFTISRDNAKNTVYLPMHSLNQEDTAVSYCAARYRYPYYARYGYWGQGTQVTVSS”, the “polyreactivity (PSR sort gate)” value was “high polyreactivity”. For “QVQLVESGGGLVQAGGSLRISCAASGSIFWDNVMGWYRQAPGKERELVADIDSWDGGSTYYADSVKGRFTISRDNAKNTVYLQMNSLKPEDTAVYYCNTDVLWWRGGDDYWGQGTQVTVSS”, the “polyreactivity (PSR sort gate)” value was “low polyreactivity”. For “QVQLVESGGGLVQAGGSLRISCAASGSIFWRYVMGWYRPAPGKERELIAAISSGGGITYYADSVKGRFTISRDNAKNTVYLQMNSLKPEDTAVYYCAARTYRGQYYTGFGFGYWGQGSQVTVSS”, the “polyreactivity (PSR sort gate)” value was “high polyreactivity”. In the case of “QVQLVESGGGLVQAGGSLRISCAASGSLFYRYAMGWYRQAPGKEREMVAAINDSGGGTYYADSVKGRFTISRDKAKNTVYLQMNSLKPEDTAVYYCAAATHNKHTARDDYWGQGTQVNVSS”, the “polyreactivity (PSR sort gate)” value is reported as “low polyreactivity”. For “QVQLVESGGGLVQAGGSLRISCAASGSNSNANAMGWYRQAPGKQREFVADISRSRGRTYYADSVKGRFTISRDNAKYTVYLQMNSLKPEVTAVYYCAAGGFGAGNNYWGQGTQVTVSS”, the “polyreactivity (PSR sort gate)” value was “high polyreactivity”. With “QVQLVESGGGLVQAGGSLRISCAASGSTFDGNAMGWYRQAPGKERELVAAISDGDSTTNADSVKGRFTISRDNAKNTVYLQMNSLKPEDTAVYYCAARSPGDQRLGRHYYGEFDYWGQGTQVTVSS” the “polyreactivity (PSR sort gate)” value was “low polyreactivity”. For “QVQLVESGGGLVQAGGSLRISCAASGSTFLYNNMGWYRQAPGKERELVAAITWSGGNTYYADSVKGRFTISRDNAKNTVYLQMNSLKPEDTAVYYCNAVWYPPKRKCFDYWGQGTQVTVSS”, the “polyreactivity (PSR sort gate)” value was “low polyreactivity”. In the case of “QVQLVESGGGLVQAGGSLRISCAASGSTFRRYPIGWYRQAPGKEREFVAVITSSGVITYYADSVKGRFTISRDNAKNTVYLQMNSLKPEDTAVYYCATDARSMDYWGQGTQVTVSS”, the “polyreactivity (PSR sort gate)” value is reported as “low polyreactivity”. In the case of “QVQLVESGGGLVQAGGSLRISCAASGSTFVPNTMGWYRQAPGKERELVAAITYSGGSTYYADSVKGRFTISRDYAKNTVYLLMNSLKPEDTEVYYCAAEGTTWYYDMDYWGQGTQVTVSS”, the “polyreactivity (PSR sort gate)” value is reported as “low polyreactivity”. In the case of “QVQLVESGGGLVQAGGSLRISCAASGSTFWYYAMGWYRQAPGKERELVAAINSDDSTNYADSVKGRFTISRDNAKNTVYLQMNSLKPEDTAVYYCNRGFVYSTTGLWRYYDFDYWGQGTQVTVSS”, the “polyreactivity (PSR sort gate)” value is reported as “low polyreactivity”. For “QVQLVESGGGLVQAGGSLRISCAASGSTFWYYAMGWYRQAPGKERELVAVINSGGITNYADSVKGRFTISRDNAKNTVYLQMNSLKPEDTAVYYCNKRLYWGYGEMDYWGQGTQVTVSS”, the “polyreactivity (PSR sort gate)” value was “low polyreactivity”. With “QVQLVESGGGLVQAGGSLRISCAASGSTFYRNAMGWYRQAPGKERELVARISSRGGRTSYADSVKGRFTISRDNAKNNVYFQMNSLKPEDTAVYYCAADYYVNRIQRYDYWGQGTQVTVSS” the “polyreactivity (PSR sort gate)” value was “high polyreactivity”. For “QVQLVESGGGLVQAGGSLRISCAASGSTFYVNAMGWYRQAPGKERELVAAIDGGDTYYADSVKGRFTISRDNAKNTVYLQMNSLKPEDTAVYYCAAESLPEISVGLGYWGQGTQVTVSS”, the “polyreactivity (PSR sort gate)” value was “low polyreactivity”. With “QVQLVESGGGLVQAGGSLRISCAASGTFGSNAMGWYRQAPGKERELVAAINSGGTTKYADSVKGRFTISRDNAKNTVYLQMNSLKPEDTAVYYCNAREGVFRYPVAHDYWGQGTQVTVSS” the “polyreactivity (PSR sort gate)” value was “low polyreactivity”. In the case of “QVQLVESGGGLVQAGGSLRISCAPSGITFKDYAMGWYRQAPGKERELVAVISYSGGSTYYADTVKGRFTISRDNAKNTVYLQMNSLKPEDTAVYYCAARVGPEYDWGQGTQVTVSS”, the “polyreactivity (PSR sort gate)” value is reported as “low polyreactivity”. For “QVQLVESGGGLVQAGGSLRISCAPSGRTFGINAMGWYRQAPGKERELVAVISFGDGGTYYADSVKGRFTISRDNAKNTVYLQMNSLKPEDTAVYYCATDYQSTSVWGGHFVINPYDYWGQGTQVTVSS”, the “polyreactivity (PSR sort gate)” value was “low polyreactivity”. In the case of “QVQLVESGGGLVQAGGSLRISCAPSGSTFYTNAMGWYRQAPGKEREFVAAISWSGSSTYADSVKGRFTISRDNAKNTVYLQMNSLKPEDTAVYYFAADWFKLRTDYYWGQGTQVTVSS”, the “polyreactivity (PSR sort gate)” value is reported as “low polyreactivity”. In the case of “QVQLVESGGGLVQAGGSLRISCASSGFTIWGYTMVWYRQAPGKERELVAAITSTGSTYYADSVKGRFTISRDNAKNTVYLQMNSLKPEDTAVYYCAAESYYGYDYWGQGTQVTVSS”, the “polyreactivity (PSR sort gate)” value is reported as “low polyreactivity”. For “QVQLVESGGGLVQAGGSLRISCSASGSIFTGYAMGWYRPAPGKERELVAAISNSGTSTYYADSVKGRFTISRDNANNTVYLQMNSLKPEDTAVYYCNTVGHRWLSDDDYWGQGTQVTVSS”, the “polyreactivity (PSR sort gate)” value was “low polyreactivity”. In the case of “QVQLVESGGGLVQAGGSLRISCVASARTFYRYAMGWYRQAPGKERELVAVITRGGSTYYADSVKGRFTISRDNAKNPVYLQMNSLKPEDTAVYFCNADGRVQRKYDYWGQGTQVTVSS”, the “polyreactivity (PSR sort gate)” value is reported as “high polyreactivity”. In the case of “QVQLVESGGGLVQAGGSLRISFAASGFFFARYAMGWYRQEPGKERELVAAISGSGARTYYADSVKGRFTNSRDNAKNTVYLQMNSLKPEDTAVYYCAVRGSWYSEHNYWGQGTQVTVSS”, the “polyreactivity (PSR sort gate)” value is reported as “high polyreactivity”. For “QVQLVESGGGLVQAGGSLRISSAASALIIYDNMGRYRQAPGKERELVAAISSSGGSTSYADSVKGRFTFSRDNANNTVYLQMNSLKPEDTAVYYSAADSYPAYLGFVGFDYWGQGTQVTVSS”, the “polyreactivity (PSR sort gate)” value was “low polyreactivity”. With “QVQLVESGGGLVQAGGSLRISSAASGPTFVPNAMGSYRQAPGKERELVATITSGGNTYYADSVKGRFTISRDNAKNTVYLQMNSLKPEDTAVYYCNRDWIYWGPRRNSGEYWGQGTQVTVSS” the “polyreactivity (PSR sort gate)” value was “low polyreactivity”. For “QVQLVESGGGLVQAGGSLRLCCAACGRIFYAYAMGWYRQAPGKERELVAAISSSGGRTYYADSVKGRFTISRDNAKNTVYLQMNSLKPEDTAVYYSAAVHYYKFEWGQRTQVTVSS”, the “polyreactivity (PSR sort gate)” value was “high polyreactivity”. In the case of “QVQLVESGGGLVQAGGSLRLCCAASGSTFYFYTMGWYRQAPGKERELVAAIRDSGSSTDYADSVKGRFTISRDNAKNTVYLQMNSLKPEATAVYYCAAEYNFPEFPWGGEYDYWGQGTQVTVSS”, the “polyreactivity (PSR sort gate)” value is reported as “low polyreactivity”. In the case of “QVQLVESGGGLVQAGGSLRLCCAAYGRTFRGNAMRLYTQAPGKERELVAVITSGDSTYYADSVKGRFTNSRDNAKNTVYLQMNSLKPEDTAVYYCAAYLWKSKRKLDYWGQGTQVTVTS”, the “polyreactivity (PSR sort gate)” value is reported as “high polyreactivity”. For “QVQLVESGGGLVQAGGSLRLGCAASGFTLWYYNIGWYRQAPGKERELVASISWSGGSTYYADSVKGRFTISRDNAKNTVYLQMNSLKPEDTALYYCNVQSYDRIYDYWGQGTQVTVSS”, the “polyreactivity (PSR sort gate)” value was “high polyreactivity”. For “QVQLVESGGGLVQAGGSLRLICAASAFNFRYYVMGWYRQAPGKERELVAVISYSGGSTYYADSVKGRFTISRDNAKNTVYLQRNSMKPEDTAVYYCDARYYVATSSIYYYWGQGTQVTVSS”, the “polyreactivity (PSR sort gate)” value was “high polyreactivity”. With “QVQLVESGGGLVQAGGSLRLICAASAFTIRRYAMGWYRQARGKERELVAAINWNGDTTYYADSVKGRFTISSDNAKNTVYLQMNSLKPEDTAVYYCATSDYYYDYWGQGTQVTVSS” the “polyreactivity (PSR sort gate)” value was “high polyreactivity”. With “QVQLVESGGGLVQAGGSLRLICAASGFIFASYAMGWYRQSPGKEREFVAAITRRGGTTYYADSVNGRFTISRDNAKNTVYLQMNSLKPEDTAVYYCATAHSRPGYVFDYWGQGTQVTVSS” the “polyreactivity (PSR sort gate)” value was “high polyreactivity”. For “QVQLVESGGGLVQAGGSLRLICAASGFIFAWYAMGWYRQAPGKERELVAAITSGGRTYYADSVKGRFTISRDNAKNTVYLQMNSMKPEDTAVYYCATDAVDSHRPYKYGPQSGSWGQGTQVTVSS”, the “polyreactivity (PSR sort gate)” value was “high polyreactivity”. In the case of “QVQLVESGGGLVQAGGSLRLICAASGFIFGAYTMGWYRQAPGKERELVADISRRGGTTYYADSVKGRFTISRDNAKNTVYLQMISLKPEDTAVYYCAKVANFWYITTLRGYYYWGQGTQVTVSS”, the “polyreactivity (PSR sort gate)” value is reported as “high polyreactivity”. In the case of “QVQLVESGGGLVQAGGSLRLICAASGFIFRVYAMGWYRQAPGKERALVATITYDGGRTYYADSVKGRFTISRDNAKNTVYLQMNSLKPEDTAVFGYWGQGTQVTVSS”, the “polyreactivity (PSR sort gate)” value is reported as “low polyreactivity”. For “QVQLVESGGGLVQAGGSLRLICAASGFIFYGNAMGWYRQAPGKERELVAAISSSGGSTYYADSVKGRFTISRDNAKNTVYLQMNSLKPEDTAVYYCNKYYLVKGPYDWGQGTQVTVSS”, the “polyreactivity (PSR sort gate)” value was “high polyreactivity”. For “QVQLVESGGGLVQAGGSLRLICAASGFIITGNAMGWYRQAPGKERELVAAITSGGNTYYADSVKGRFTISRDNAKNTVYLQMISMKPEDTAVYYCAKYGPHWRILMEYWGQGTQVTVSS”, the “polyreactivity (PSR sort gate)” value was “low polyreactivity”. With “QVQLVESGGGLVQAGGSLRLICAASGFTFDENAMGWYRQAPGINYSGASTYYADSVKGRFTISRDNAKNTVYLQMISLKPEDTAVYYCAADYETGAVSILDDYWGQGTQVTVSS” the “polyreactivity (PSR sort gate)” value was “low polyreactivity”.
